Assay results taken from paper PMC12146848, “Deciphering meiotic chromatin organization by SYCP3”.

What was measured:
SYCP3 [1] = target: T1, SYCP3 (Mus musculus, UniProt P70281); test: EMSA; 0.2 uM probe, 1 ug SYCP3 in 15 ul; Beyotime GS008 Gel-Shift binding buffer (composition and pH not given), 15 ul, 1 h at room temperature, 4% polyacrylamide gel; details: protein: recombinant; tags: C-terminal 6xHis; chain copies: 4; label: 3' biotin-dUTP added by TdT on both strands; blunt before 3' TdT labeling
T1 sequence: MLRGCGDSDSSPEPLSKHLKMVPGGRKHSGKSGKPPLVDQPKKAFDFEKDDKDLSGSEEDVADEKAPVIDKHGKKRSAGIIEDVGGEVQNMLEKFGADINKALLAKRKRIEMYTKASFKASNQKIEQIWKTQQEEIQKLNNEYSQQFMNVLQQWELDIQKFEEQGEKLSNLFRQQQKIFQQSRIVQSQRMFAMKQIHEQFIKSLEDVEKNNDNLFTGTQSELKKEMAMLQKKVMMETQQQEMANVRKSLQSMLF

SYCP3 [2] = target: T1, SYCP3; test: competition; 50-fold excess against labeled WT Probe; efficient competition; Beyotime GS008 Gel-Shift binding buffer (composition and pH not given), 15 ul, 1 h at room temperature, 4% polyacrylamide gel; details: protein: recombinant; tags: C-terminal 6xHis; chain copies: 4; label: unlabeled; blunt
SYCP3 [3] = target: T1, SYCP3; test: competition; 50-fold excess against labeled WT Probe; higher affinity than WT; Beyotime GS008 Gel-Shift binding buffer (composition and pH not given), 15 ul, 1 h at room temperature, 4% polyacrylamide gel; details: protein: recombinant; tags: C-terminal 6xHis; chain copies: 4; label: unlabeled; blunt
SYCP3 [4] = target: T1, SYCP3; test: EMSA; stronger than WT Probe; Beyotime GS008 Gel-Shift binding buffer (composition and pH not given), 15 ul, 1 h at room temperature, 4% polyacrylamide gel; details: protein: recombinant; tags: C-terminal 6xHis; chain copies: 4; label: 3' biotin-dUTP added by TdT on both strands; blunt before 3' TdT labeling

B1: WT Probe (dsDNA)
DNA 1: ACAGTCCTGGTGATTGAACTCCGGCCCTGGGCATGCCAGGCGAGCACTCCACTCTTTGAG
DNA 2: CTCAAAGAGTGGAGTGCTCGCCTGGCATGCCCAGGGCCGGAGTTCAATCACCAGGACTGT
B1: binds (SYCP3 [1]).

B2: WT competitor (dsDNA)
DNA 1: B1 DNA 1
DNA 2: B1 DNA 2
B2: binds (SYCP3 [2]).

B3: Mut competitor (dsDNA)
DNA 1: GTGACTTCAACAGCCAGGTCTTAATTTCAAATGCATTGAATAGATGTCTTGTCTCCCAGA
DNA 2: TCTGGGAGACAAGACATCTATTCAATGCATTTGAAATTAAGACCTGGCTGTTGAAGTCAC
B3: binds (SYCP3 [3]).

B4: Mut probe (dsDNA)
DNA 1: B3 DNA 1
DNA 2: B3 DNA 2
B4: binds (SYCP3 [4]).
